# Experimental data from US20220056091A1 (BRIGHT PEAK THERAPEUTICS, published 2022).
# Residue numbers refer to the chain shown, from its start. Names and notes keep the numbering of the source.
# T1: Fc fused human IL-18Rα (human, UniProt Q13478 19-329, limits assumed)
# T1 construct: also called IL-18Rα monomer; IL-18 receptor alpha; not shown: Fc part
# T1 sequence (looked up): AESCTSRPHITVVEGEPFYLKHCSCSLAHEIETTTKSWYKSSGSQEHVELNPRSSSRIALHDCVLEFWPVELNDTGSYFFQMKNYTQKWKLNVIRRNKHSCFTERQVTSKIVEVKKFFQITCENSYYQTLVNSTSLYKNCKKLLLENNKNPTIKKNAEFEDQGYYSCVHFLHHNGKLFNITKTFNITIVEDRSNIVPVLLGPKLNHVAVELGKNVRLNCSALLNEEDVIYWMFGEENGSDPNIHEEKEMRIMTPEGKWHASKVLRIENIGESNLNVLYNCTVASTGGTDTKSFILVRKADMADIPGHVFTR
# T2: Fc fused human IL-18BP isoform a (IL-18BPa) (human, UniProt O95998 31-194)
# T2 construct: also called IL-18BP monomer; not shown: Fc part
# T2 sequence (looked up): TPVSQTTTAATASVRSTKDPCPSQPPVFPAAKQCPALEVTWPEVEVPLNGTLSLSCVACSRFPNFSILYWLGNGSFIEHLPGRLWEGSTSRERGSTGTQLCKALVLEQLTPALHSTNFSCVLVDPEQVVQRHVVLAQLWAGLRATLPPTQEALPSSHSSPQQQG
# T3: IL-18Rα/β heterodimer (Fc fused human IL-18Rα mixed and pre-incubated with Fc fused human IL-18Rβ) (human, UniProt Q13478 19-329; O95256 20-356, limits assumed)
# T3 construct: 6 µg/mL of each receptor mixed and pre-incubated 30 min before capture on anti-human IgG; also called alpha/beta heterodimer IL-18 receptor; not shown: Fc part
# T3 sequence (looked up) 1: T1 sequence (looked up)
# T3 sequence (looked up) 2: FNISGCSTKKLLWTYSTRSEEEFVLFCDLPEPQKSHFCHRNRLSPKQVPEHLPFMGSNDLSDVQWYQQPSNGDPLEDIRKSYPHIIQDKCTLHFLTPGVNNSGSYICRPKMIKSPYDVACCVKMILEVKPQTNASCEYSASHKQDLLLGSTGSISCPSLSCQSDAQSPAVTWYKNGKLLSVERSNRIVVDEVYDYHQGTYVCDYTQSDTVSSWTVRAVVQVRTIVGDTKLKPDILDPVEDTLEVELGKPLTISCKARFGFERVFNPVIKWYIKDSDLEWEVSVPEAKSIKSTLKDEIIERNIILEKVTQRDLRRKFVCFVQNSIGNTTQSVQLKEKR
# B1: Modified IL-18 polypeptide of SEQ ID NO: 2 (E06K, K53A, S55A) (ligand)
# chain: YFGKLKSKLSVIRNLNDQVLFIDQGNRPLFEDMTDSDCRDNAPRTIFIISMYADAQPRGMAVTISVKCEKISTLSCENKIISFKEMNPPDNIKDTKSDIIFFQRSVPGHDNKMQFESSSYEGYFLACEKERDLFKLILKKEDELGDRSIMFTVQNED
# B2: Modified IL-18 polypeptide of SEQ ID NO: 3 (Y01G, F02A, E06K, M51G, K53A, D54A, S55A, T63A) (ligand)
# chain: B1 chain with Y1G, F2A, M51G, D54A, T63A
# B3: Modified IL-18 polypeptide of SEQ ID NO: 13 (E06K, K53A, S55A, D54A) (ligand)
# chain: B1 chain with D54A
# B4: Modified IL-18 polypeptide of SEQ ID NO: 17 (E06K, K53A, S55A, C38S, C68S, C76S, C127S, K70C) (ligand)
# chain: B1 chain with C38S, C68S, K70C, C76S, C127S
# B5: Modified IL-18 polypeptide of SEQ ID NO: 10 (E06K, K53A, S55A, T63A) (ligand)
# chain: B1 chain with T63A
# B6: Modified IL-18 polypeptide of SEQ ID NO: 18 (E06K, K53A, T63A) (ligand)
# chain: B1 chain with A55S, T63A
# B7: Modified IL-18 polypeptide of SEQ ID NO: 12 (E06K, K53A, S55A, F02A) (ligand)
# chain: B1 chain with F2A
# B8: Modified IL-18 polypeptide of SEQ ID NO: 23 (K53A, T63A, C38S, C68S, C76S, C127S, K70C) (ligand)
# chain: B1 chain with K6E, C38S, A55S, T63A, C68S, K70C, C76S, C127S
# B9: Modified IL-18 polypeptide of SEQ ID NO: 22 (E06K, K53A, C38S, C68S, C76S, C127S, K70C) (ligand)
# chain: B1 chain with C38S, A55S, C68S, K70C, C76S, C127S
# B10: Modified IL-18 polypeptide of SEQ ID NO: 16 (C38S, C68S, C76S, C127S, K70C) (ligand)
# chain: B1 chain with K6E, C38S, A53K, A55S, C68S, K70C, C76S, C127S
# B11: Modified IL-18 polypeptide of SEQ ID NO: 71 with a 30 kDa PEG attached at residue C68 (E6K, C38S, K53A, C68-30kDPEG) (ligand)
# chain: B1 chain with C38S, A55S
# modifications: 30 kDa PEG on Cys 68 (30 kDa DBCO-polyethylene glycol clicked to a bromoacetamido-PEG5-azide linker on the cysteine)
# notes: also called 71 + PEG
# B12: Modified IL-18 polypeptide of SEQ ID NO: 70 (E6K, K53A, C38S, C76S, C127S) (ligand)
# chain: B1 chain with C38S, A55S, C76S, C127S
# B13: Modified IL-18 polypeptide of SEQ ID NO: 14 (E06K, K53A, S55A, M51G) (ligand)
# chain: B1 chain with M51G
# B14: Modified IL-18 polypeptide of SEQ ID NO: 71 (E6K, C38S, K53A) (ligand)
# chain: B1 chain with C38S, A55S
# B15: Modified IL-18 polypeptide of SEQ ID NO: 15 (C38S, C68S, C76S, C127S) (ligand)
# chain: B1 chain with K6E, C38S, A53K, A55S, C68S, C76S, C127S
# Molecular target: T1, Fc fused human IL-18Rα
# Experiment: SPR, Fc-IL-18Rα captured, 1:1 model
# Description: (§1) The interaction of the wild type and of modified IL-18 polypeptides with human IL-18 receptor subunits were measured with Surface Plasmon Resonance (SPR) technology. Anti-human IgG antibodies were bound by amine coupling onto a CM5 chip to capture 6 μg/mL of Fc fused human IL-18Rα, 6 μg/mL of Fc fused human IL-18Rβ, or 2 μg/mL of Fc fused human IL-18BP isoform a (IL-18BPa) for 30 min before capture. In other settings, 6 μg/mL of alpha and beta IL-18 receptors were mixed and pre-incubated for 30 min before capture of the alpha/beta heterodimer IL-18 receptor.
# (§2) The kinetic binding of the IL-18 analytes were measured with a Biacore 8K instrument in two-fold serial dilutions starting at 1 μM down to 0.98 nM. Regeneration of the surface back to amine coupled anti IgG antibody was done after every concentration of analyte. To measure the protein association to the receptors, the samples were injected with a flow rate of 50 μL/min for 60 s, followed by 300 s buffer only to detect the dissociation. The used running buffer was 1×PBS with 0.05% Tween20. The relative response units (RU, Y-axis) are plotted against time (s, X-axis) and analyzed in a kinetic 1:1 binding model for the monomer receptor binding and for the binding to the IL-18BP. A kinetic heterogenous ligand fit model was applied for the alpha/beta heterodimer binding.
# Modified IL-18 polypeptides having sequence modifications E06K, K53A, S55A, and T63A maintained binding affinity to IL-18Rα.
Binder,Kd,koff,kon
B1,2000 nM,0.0627 s⁻¹,31800 M⁻¹ s⁻¹
B2,> 1000 nM,,
B3,> 1000 nM,,
B4,> 1000 nM,,
B5,147 nM,0.0496 s⁻¹,337000 M⁻¹ s⁻¹
B6,38 nM,0.00573 s⁻¹,151000 M⁻¹ s⁻¹
B7,> 1000 nM,,
B8,> 1000 nM,,
B9,2210 nM,0.0199 s⁻¹,8970 M⁻¹ s⁻¹
B10,304 nM,0.0158 s⁻¹,51900 M⁻¹ s⁻¹
B11,682 nM,0.0217 s⁻¹,31800 M⁻¹ s⁻¹
B12,379 nM,0.0369 s⁻¹,92600 M⁻¹ s⁻¹
B13,> 1000 nM,,
B14,72.4 nM,0.0151 s⁻¹,208000 M⁻¹ s⁻¹
B15,231 nM,0.0179 s⁻¹,77500 M⁻¹ s⁻¹

# Molecular target: T2, Fc fused human IL-18BP isoform a …
# Experiment: SPR, Fc-IL-18BPa captured, 1:1 model
# Description: as §1, §2
# Modified IL-18 polypeptides bearing sequence modifications K53A, S55A, E06K, C38S, C68S, C76S, C127S, and/or K70C maintained binding affinity to IL-18BP.
Binder,Kd,koff,kon
B3,> 1000 nM,,
B5,49 nM,0.0181 s⁻¹,370000 M⁻¹ s⁻¹
B6,10.4 nM,0.00291 s⁻¹,279000 M⁻¹ s⁻¹
B7,> 1000 nM,,
B8,52.8 nM,0.00118 s⁻¹,22400 M⁻¹ s⁻¹
B9,23.2 nM,0.00235 s⁻¹,101000 M⁻¹ s⁻¹
B10,0.374 nM,0.000265 s⁻¹,708000 M⁻¹ s⁻¹
B11,24.5 nM,0.0039 s⁻¹,158000 M⁻¹ s⁻¹
B12,29.1 nM,0.0037 s⁻¹,128000 M⁻¹ s⁻¹
B13,> 1000 nM,,
B14,2.72 nM,0.0031 s⁻¹,1.14e+06 M⁻¹ s⁻¹
B15,0.199 nM,0.000253 s⁻¹,1.27e+06 M⁻¹ s⁻¹

# Molecular target: T3, IL-18Rα/β heterodimer (Fc fused human …)
# Experiment: SPR, Fc-IL-18Rα/Fc-IL-18Rβ mix captured, heterogeneous ligand model
# Description: as §1, §2
# Modified IL-18 polypeptides bearing sequence modifications E06K, K53A, S55A, and T63A maintained binding affinity to IL-18Rα/β heterodimer.
Binder,Kd,koff,kon
B1,1930 nM,0.0734 s⁻¹,39200 M⁻¹ s⁻¹
B2,> 1000 nM,,
B3,> 1000 nM,,
B4,> 1000 nM,,
B5,132 nM,0.054 s⁻¹,409000 M⁻¹ s⁻¹
B6,7.01 nM,0.000955 s⁻¹,136000 M⁻¹ s⁻¹
B7,> 1000 nM,,
B8,> 1000 nM,,
B9,48.2 nM,0.000761 s⁻¹,15800 M⁻¹ s⁻¹
B10,200 nM,0.0317 s⁻¹,159000 M⁻¹ s⁻¹
B11,23.9 nM,0.0008 s⁻¹,32200 M⁻¹ s⁻¹
B12,13.2 nM,0.0006 s⁻¹,43600 M⁻¹ s⁻¹
B14,2.92 nM,0.0008 s⁻¹,279000 M⁻¹ s⁻¹
B15,315 nM,0.022 s⁻¹,69800 M⁻¹ s⁻¹

# Molecular target: anti-IL18 monoclonal antibody (MBL, cat #D043-3, Clone 25-2G)
# Experiment: sandwich ELISA, capture clone 25-2G, detection biotinylated clone 159-12B; without IL-18BP; the signal depends on both antibodies
# Description: (§3) Immune-related PD effects were determined by analyzing cytokine levels in plasma. The following plasma cytokines were measured: IFNγ, CXCL9, CXCL10, GM-CSF, IL-1a, FasL, and IL-18BP. The activation status of leukocytes was determined by monitoring surface markers: ICOS, PD-1, CD25, CD69, and Fas. Bioanalysis was conducted by detecting the total amount of IL-18 variants (free and IL-18BP-complexed, see FIG. 7). Corning high-binding half-area plates (Fisher Scientific, Reinach, Switzerland) were coated overnight at 4° C. with 25 μl of anti-IL18 monoclonal antibody (MBL, cat #D043-3, Clone 25-2G) at 2 μg/ml in PBS. Plates were then washed four times with 100 μl of PBS-0.02% Tween20. Plates surfaces were blocked with 25 μl of PBS-0.02% Tween20-1% BSA at 37° C. during 1 h. Plates were then washed four times with 100 μl of PBS-0.02% Tween20. Twenty-five microliters of IL-18 variants (or of mouse plasma) were added in […] serial dilutions starting at 50 nM down to 0.02 nM into PBS-0.02% Tween20-0.1% BSA and incubated at 37° C. during 2h. […] Plates were incubated during 2h at 37° C. and were then washed four times with 100 μl of PBS-0.02% Tween20. […] ELISA signal was then measured at 450 nm on an EnSpire plate reader from Perkin Elmer (Schwerzenbach, Switzerland)
row,Binder,EC50 (read off the curve)
1,B1,~0.2 nM

# Molecular target: IL-18R on HEK-Blue IL18R reporter cells (InvivoGen, #hkb-hmil18)
# Experiment: cell-based or functional assay
Binder,"EC50 (pM), HEK-Blue IL18R reporter assay","Potency loss Mutant/NWT, HEK-Blue IL18R reporter assay"
B1,272 pM,81.8 fold
B5,0.79 pM,0.24 fold
B6,1.77 pM,0.53 fold
B9,9.12 pM,2.74 fold
B11,1.85 pM,0.56 fold
B12,3.73 pM,1.11 fold
B14,0.86 pM,0.26 fold

# Molecular target: anti-IL18 monoclonal antibody (MBL, cat #D043-3, Clone 25-2G)
# Experiment: sandwich ELISA, capture clone 25-2G, detection biotinylated clone 159-12B; in the presence of IL-18BP (form and concentration not given); the signal depends on both antibodies
# Description: as §3
row,Binder,EC50 (read off the curve)
1,B1,~0.2 nM
